Experiments:
β3 integrin subunit = assay: Immunoprecipitation and Western blotting of the β3 integrin subunit from surface-biotinylated cells; type: cell-based, human; conditions: cells incubated with 50 μM for 48 hours; precipitated with mAb L230; 90 kDa without inhibitor
Procedure: Immunoprecipitation and Western blotting were performed as follows. Confluent cells were surface biotinylated with 0.1 mg/ml of Sulfo-NHS-LC-Biotin (Pierce, Rockford, Ill.). Where indicated, the cells were incubated prior to biotinylation with 50 μM Batimastat for 48 hours in AIM-V medium (GibcoBRL). Cells were solubilized at 10^7/ml in lysis buffer (50 mM n-octyl-(-D-glucopyranoside in 50 mM TBS, pH 7.4/1 mM CaCl2/1 mM MgCl2/1 mM PMSF/10 μg/ml leupeptin/10 μg/ml pepstatin) for one hr on ice. Insoluble material was removed by centrifugation. Supernatants were precleared for two hours at 4° C. with Protein A-Agarose (Calbiochem, La Jolla, Calif.). Precleared supernatants (100-150 μl) were incubated overnight at 4° C. with 3 μg of the indicated antibodies. The immune complexes were collected on Protein A-Agarose 15 μl of a 50% slurry) during a two hour incubation at room temperature. Following washes with washing buffer (50 mM Tris, pH 7.4/0.5 M NaCl/0.1% Tween 20), the beads were treated with 4% SDS in 125 mM Tris, pH 6.8/20% glycerol buffer, and boiled. […]

[1] = molecular target: integrin αvβ3 with the wild type β3 subunit, on β3-MCF7 cells (human) (UniProt P06756); assay: flow cytometry, β3-MCF7 cells stained with 5 µg/ml LM609, n=11
Sequence of UniProt P06756 (P06756 31-1048 limits assumed, chain 1 of 2): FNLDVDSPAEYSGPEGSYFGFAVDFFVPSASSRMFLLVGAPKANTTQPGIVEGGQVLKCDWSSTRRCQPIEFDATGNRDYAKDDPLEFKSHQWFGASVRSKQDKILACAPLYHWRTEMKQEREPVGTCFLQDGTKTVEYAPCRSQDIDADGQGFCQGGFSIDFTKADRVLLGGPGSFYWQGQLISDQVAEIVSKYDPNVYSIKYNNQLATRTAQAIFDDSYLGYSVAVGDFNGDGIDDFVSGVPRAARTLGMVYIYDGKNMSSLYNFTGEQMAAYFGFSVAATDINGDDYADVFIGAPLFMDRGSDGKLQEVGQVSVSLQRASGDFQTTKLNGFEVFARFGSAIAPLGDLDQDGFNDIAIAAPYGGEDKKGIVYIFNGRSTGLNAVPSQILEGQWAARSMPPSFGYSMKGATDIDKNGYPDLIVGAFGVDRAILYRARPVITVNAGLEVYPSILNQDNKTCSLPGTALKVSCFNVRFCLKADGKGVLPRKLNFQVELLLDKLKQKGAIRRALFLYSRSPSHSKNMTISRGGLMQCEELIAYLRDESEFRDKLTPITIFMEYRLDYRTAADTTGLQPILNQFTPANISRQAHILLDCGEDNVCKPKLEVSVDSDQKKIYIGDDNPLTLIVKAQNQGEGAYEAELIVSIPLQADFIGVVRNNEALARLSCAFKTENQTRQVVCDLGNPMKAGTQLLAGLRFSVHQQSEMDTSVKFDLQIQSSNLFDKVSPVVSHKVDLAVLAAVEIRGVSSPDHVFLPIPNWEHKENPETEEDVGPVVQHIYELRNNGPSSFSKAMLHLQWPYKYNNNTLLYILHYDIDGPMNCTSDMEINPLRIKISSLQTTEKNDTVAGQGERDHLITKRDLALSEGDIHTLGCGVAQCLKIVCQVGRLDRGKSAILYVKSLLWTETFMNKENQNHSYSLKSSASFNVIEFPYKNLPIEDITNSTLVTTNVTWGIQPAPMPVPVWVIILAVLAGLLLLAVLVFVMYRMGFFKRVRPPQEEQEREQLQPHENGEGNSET
Sequence of UniProt P06756 (chain, as listed by the source limits assumed, chain 2 of 2): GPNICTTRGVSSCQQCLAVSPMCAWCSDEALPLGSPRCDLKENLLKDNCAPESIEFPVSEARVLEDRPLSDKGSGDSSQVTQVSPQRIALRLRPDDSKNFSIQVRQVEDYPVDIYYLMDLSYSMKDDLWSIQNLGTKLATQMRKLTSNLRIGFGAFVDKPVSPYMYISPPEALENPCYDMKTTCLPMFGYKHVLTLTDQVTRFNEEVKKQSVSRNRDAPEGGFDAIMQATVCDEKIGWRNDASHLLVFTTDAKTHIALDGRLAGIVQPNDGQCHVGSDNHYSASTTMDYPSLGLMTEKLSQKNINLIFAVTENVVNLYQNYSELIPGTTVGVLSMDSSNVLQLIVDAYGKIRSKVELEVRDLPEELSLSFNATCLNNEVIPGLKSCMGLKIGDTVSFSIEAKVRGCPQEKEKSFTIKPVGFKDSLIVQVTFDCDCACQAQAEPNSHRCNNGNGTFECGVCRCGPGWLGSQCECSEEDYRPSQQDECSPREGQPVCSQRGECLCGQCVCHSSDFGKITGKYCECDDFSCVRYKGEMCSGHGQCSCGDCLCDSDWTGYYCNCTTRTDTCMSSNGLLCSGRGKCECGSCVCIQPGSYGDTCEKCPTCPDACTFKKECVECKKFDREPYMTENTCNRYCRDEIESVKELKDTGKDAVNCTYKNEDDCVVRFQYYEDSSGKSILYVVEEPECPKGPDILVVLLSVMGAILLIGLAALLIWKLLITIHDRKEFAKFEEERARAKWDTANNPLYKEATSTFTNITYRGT

[2] = molecular target: integrin αvβ3 modified by MT1-MMP, on β3/MT-MCF7 cells (human) (UniProt P06756); assay: flow cytometry, β3/MT-MCF7 cells stained with 5 µg/ml LM609, n=11
[3] = molecular target: integrin αvβ3 modified by MT1-MMP, on β3/MT-MCF7 cells (human) (UniProt P06756); assay: cell-based or functional assay

`CNC(=O)[C@H](Cc1ccccc1)NC(=O)[C@H](CC(C)C)[C@H](CSc1cccs1)C(=O)NO` [Batimastat] was tested, and the “Apparent molecular mass of the β3 integrin subunit from β3/MT-MCF7 cells” value (β3 integrin subunit) was 95 kDa.

Work on “murine mAb LM609 specific to integrin αvβ3 (antibody)” yielded a mean fluorescence intensity [1] of 38.7 and a mean fluorescence intensity [2] of 35.5.

In the case of “vitronectin (from UniProt P04004 20-478) (ligand)”, the cells migrating to the vitronectin-coated membrane undersurface (Transwell, 48 hours) [3] is reported as 23300 cells.

— patent publication US20020025510A1, “Screening methods based on superactivated alpha V beta 3 integrin” (priority 2000, published 2002)
